Assay: Activity with ONPG, release of o-nitrophenol (ONP) at 405 nm
Assay type: biochemical
Conditions: enzyme 110 μg/ml, ONPG 5 mg/ml
Method: The activity of HIGAL and MTGAL with ONPG was tested by mixing 200 microliters (normally 5.5 mg/ml) ONPG in 50 mM sodium acetate, 1 mM CaCl2, 0.01% Triton X-100, pH 6.5 with 25 microliters galactanase (normally 1 mg/ml) in the well of a microtiter plate. Release of o-nitrophenol (ONP) was measured at room temperature at 405 nm every 10 seconds normally for 30 min on a SpectraMaxPlus (Molecular Devices). Effects on the observed release of ONP was studied with varied enzyme concentration, ONPG concentration and with addition of galactose (Gal), beta-1,4-galactobiose (Gal2) (Megazyme), beta-1,4-galactotriose (Gal3), beta-1,4-galactotetraose (Gal4), glucose (Glu), arabinose (Ara), galacturonic acid (GalA), maltose (Mal) or maltotriose (Mal3).
In Tables 8-11 below, incubation times required to increase the observed absorbance at 405 nm by given amounts are listed. Cells marked ‘n.r.’ indicate that the increase in absorbance was not reached in the experiment. In general, the initial increase in absorbance at 405 nm was very slow, but after a lag phase the rate of ONP release often increased drastically—often approximately exponentially. The most likely explanation for the observed kinetics is that ONPG reacts with the enzyme to give an enzyme-galactosyl intermediate which hydrolyses very slowly. Instead, the Gal of the intermediate is released by transglycosylation, initially with ONPG or added sugar as acceptor. In cases where the rate of ONP release increases, these transglycosylation products are even better acceptors than the initial ones. […] More likely, Gal inhibits the subsequent transglycosylation, which requires binding of ONPG to the +1 and +2 subsites, e.g., by binding to the +2 subsite. With 50 mg/ml Gal added (results not shown) release of ONP was even slower with only insignificant increase of absorbance at 405 nm in 30 min.

[1] = Table 11, no sugar, first experiment
[2] = Table 11, no sugar, second experiment
[3] = Table 11, no sugar, third experiment

B1: HIGAL: GH Family 53 galactanase from Humicola insolens, SEQ ID NO: 2 (wild type parent) (protein, listed as Humicola insolens)
chain: ALQYKGVDWSSVMVEERAGVRYKNVNGQEKPLEYILAENGVNMVRQRVWVNPWDGNYNLDYNIQLARRAKAAGLGLYINFHYSDTWADPAHQTTPAGWPSDINNLAWKLYNYTLDSMNRFADAGIQVDIVSIGNEITQGLLWPLGKTNNWYNIARLLHSAAWGVKDSRLNPKPKIMVHLDNGWNWDTQNWWYTNVLSQGPFEMSDFDMMGVSFYPFYSASATLDSLRRSLNNMVSRWGKEVAVVETNWPTSCPYPRYQFPADVRNVPFSAAGQTQYIQSVANVVSSVSKGVGLFYWEPAWIHNANLGSSCADNTMFTPSGQALSSLSVFHRI
modifications: mat_peptide (1)..()
- Initial rate (mOD/min) (Table 10, Gal3 0.5 mg/ml): 200 mOD/min
- Time (min) to increase A405 by: 0.025 (Table 10, Gal3 0.5 mg/ml): 0.0 min
- Time (min) to increase A405 by: 0.05 (Table 10, Gal3 0.5 mg/ml): 0.2 min
- Time (min) to increase A405 by: 0.1 (Table 10, Gal3 0.5 mg/ml): 0.3 min
- Time (min) to increase A405 by: 0.2 (Table 10, Gal3 0.5 mg/ml): 0.5 min
- Time (min) to increase A405 by: 0.4 (Table 10, Gal3 0.5 mg/ml): 0.8 min
- Time (min) to increase A405 by: 0.8 (Table 10, Gal3 0.5 mg/ml): 1.5 min
- Time (min) to increase A405 by: 1.6 (Table 10, Gal3 0.5 mg/ml): 2.5 min
- Time (min) to increase A405 by: 3.2 (Table 10, Gal3 0.5 mg/ml): 3.8 min
- Initial rate (mOD/min) (Table 10, Gal4 0.05 mg/ml): 80 mOD/min
- Time (min) to increase A405 by: 0.025 (Table 10, Gal4 0.05 mg/ml): 0.2 min
- Time (min) to increase A405 by: 0.05 (Table 10, Gal4 0.05 mg/ml): 0.5 min
- Time (min) to increase A405 by: 0.1 (Table 10, Gal4 0.05 mg/ml): 0.8 min
- Time (min) to increase A405 by: 0.2 (Table 10, Gal4 0.05 mg/ml): 1.5 min
- Time (min) to increase A405 by: 0.4 (Table 10, Gal4 0.05 mg/ml): 2.5 min
- Time (min) to increase A405 by: 0.8 (Table 10, Gal4 0.05 mg/ml): 3.7 min
- Time (min) to increase A405 by: 1.6 (Table 10, Gal4 0.05 mg/ml): 5.2 min
- Time (min) to increase A405 by: 3.2 (Table 10, Gal4 0.05 mg/ml): 7.5 min
- Initial rate (mOD/min) (Table 10, Gal4 0.5 mg/ml): 700 mOD/min
- Time (min) to increase A405 by: 0.025 (Table 10, Gal4 0.5 mg/ml): 0.0 min
- Time (min) to increase A405 by: 0.05 (Table 10, Gal4 0.5 mg/ml): 0.0 min
- Time (min) to increase A405 by: 0.1 (Table 10, Gal4 0.5 mg/ml): 0.0 min
- Time (min) to increase A405 by: 0.2 (Table 10, Gal4 0.5 mg/ml): 0.2 min
- Time (min) to increase A405 by: 0.4 (Table 10, Gal4 0.5 mg/ml): 0.5 min
- Time (min) to increase A405 by: 0.8 (Table 10, Gal4 0.5 mg/ml): 1.0 min
- Time (min) to increase A405 by: 1.6 (Table 10, Gal4 0.5 mg/ml): 2.2 min
- Time (min) to increase A405 by: 3.2 (Table 10, Gal4 0.5 mg/ml): 5.3 min
- Initial rate (mOD/min) (Table 10, no sugar): 0.9 mOD/min
- Time (min) to increase A405 by: 0.025 (Table 10, no sugar): 10.0 min
- Time (min) to increase A405 by: 0.05 (Table 10, no sugar): 11.3 min
- Time (min) to increase A405 by: 0.1 (Table 10, no sugar): 12.8 min
- Time (min) to increase A405 by: 0.2 (Table 10, no sugar): 14.2 min
- Time (min) to increase A405 by: 0.4 (Table 10, no sugar): 15.7 min
- Time (min) to increase A405 by: 0.8 (Table 10, no sugar): 17.0 min
- Time (min) to increase A405 by: 1.6 (Table 10, no sugar): 18.5 min
- Time (min) to increase A405 by: 3.2 (Table 10, no sugar): 20.0 min
- Time (min) to increase A405 by: 0.025 (Table 11, Ara 5 mg/ml): 26.5 min
- Time (min) to increase A405 by: 0.05 (Table 11, Ara 5 mg/ml): n.r.
- Time (min) to increase A405 by: 0.1 (Table 11, Ara 5 mg/ml): n.r.
- Time (min) to increase A405 by: 0.2 (Table 11, Ara 5 mg/ml): n.r.
- Time (min) to increase A405 by: 0.4 (Table 11, Ara 5 mg/ml): n.r.
- Time (min) to increase A405 by: 0.8 (Table 11, Ara 5 mg/ml): n.r.
- Time (min) to increase A405 by: 1.6 (Table 11, Ara 5 mg/ml): n.r.
- Time (min) to increase A405 by: 3.2 (Table 11, Ara 5 mg/ml): n.r.
- Time (min) to increase A405 by: 0.025 (Table 11, GalA 5 mg/ml): 9.5 min
- Time (min) to increase A405 by: 0.05 (Table 11, GalA 5 mg/ml): 11.2 min
- Time (min) to increase A405 by: 0.1 (Table 11, GalA 5 mg/ml): 12.7 min
- Time (min) to increase A405 by: 0.2 (Table 11, GalA 5 mg/ml): 14.3 min
- Time (min) to increase A405 by: 0.4 (Table 11, GalA 5 mg/ml): 15.8 min
- Time (min) to increase A405 by: 0.8 (Table 11, GalA 5 mg/ml): 17.5 min
- Time (min) to increase A405 by: 1.6 (Table 11, GalA 5 mg/ml): 19.3 min
- Time (min) to increase A405 by: 3.2 (Table 11, GalA 5 mg/ml): 22.5 min
- Time (min) to increase A405 by: 0.025 (Table 11, GalA 50 mg/ml): 13.7 min
- Time (min) to increase A405 by: 0.05 (Table 11, GalA 50 mg/ml): 16.7 min
- Time (min) to increase A405 by: 0.1 (Table 11, GalA 50 mg/ml): 20.0 min
- Time (min) to increase A405 by: 0.2 (Table 11, GalA 50 mg/ml): 23.3 min
- Time (min) to increase A405 by: 0.4 (Table 11, GalA 50 mg/ml): 26.8 min
- Time (min) to increase A405 by: 0.8 (Table 11, GalA 50 mg/ml): n.r.
- Time (min) to increase A405 by: 1.6 (Table 11, GalA 50 mg/ml): n.r.
- Time (min) to increase A405 by: 3.2 (Table 11, GalA 50 mg/ml): n.r.
- Time (min) to increase A405 by: 0.025 (Table 11, Glu 5 mg/ml): 12.8 min
- Time (min) to increase A405 by: 0.05 (Table 11, Glu 5 mg/ml): 14.8 min
- Time (min) to increase A405 by: 0.1 (Table 11, Glu 5 mg/ml): 17.0 min
- Time (min) to increase A405 by: 0.2 (Table 11, Glu 5 mg/ml): 19.3 min
- Time (min) to increase A405 by: 0.4 (Table 11, Glu 5 mg/ml): 21.8 min
- Time (min) to increase A405 by: 0.8 (Table 11, Glu 5 mg/ml): 24.3 min
- Time (min) to increase A405 by: 1.6 (Table 11, Glu 5 mg/ml): 27.0 min
- Time (min) to increase A405 by: 3.2 (Table 11, Glu 5 mg/ml): n.r.
- Time (min) to increase A405 by: 0.025 (Table 11, Mal 5 mg/ml): 11.5 min
- Time (min) to increase A405 by: 0.05 (Table 11, Mal 5 mg/ml): 13.0 min
- Time (min) to increase A405 by: 0.1 (Table 11, Mal 5 mg/ml): 14.3 min
- Time (min) to increase A405 by: 0.2 (Table 11, Mal 5 mg/ml): 15.7 min
- Time (min) to increase A405 by: 0.4 (Table 11, Mal 5 mg/ml): 17.2 min
- Time (min) to increase A405 by: 0.8 (Table 11, Mal 5 mg/ml): 18.7 min
- Time (min) to increase A405 by: 1.6 (Table 11, Mal 5 mg/ml): 20.2 min
- Time (min) to increase A405 by: 3.2 (Table 11, Mal 5 mg/ml): 22.0 min
- Time (min) to increase A405 by: 0.025 (Table 11, Mal3 5 mg/ml): 11.0 min
- Time (min) to increase A405 by: 0.05 (Table 11, Mal3 5 mg/ml): 12.3 min
- Time (min) to increase A405 by: 0.1 (Table 11, Mal3 5 mg/ml): 13.8 min
- Time (min) to increase A405 by: 0.2 (Table 11, Mal3 5 mg/ml): 15.2 min
- Time (min) to increase A405 by: 0.4 (Table 11, Mal3 5 mg/ml): 16.5 min
- Time (min) to increase A405 by: 0.8 (Table 11, Mal3 5 mg/ml): 18.0 min
- Time (min) to increase A405 by: 1.6 (Table 11, Mal3 5 mg/ml): 19.3 min
- Time (min) to increase A405 by: 3.2 (Table 11, Mal3 5 mg/ml): 21.3 min
- Time (min) to increase A405 by: 0.025 [1]: 8.5 min
- Time (min) to increase A405 by: 0.05 [1]: 9.5 min
- Time (min) to increase A405 by: 0.1 [1]: 10.8 min
- Time (min) to increase A405 by: 0.2 [1]: 12.0 min
- Time (min) to increase A405 by: 0.4 [1]: 13.3 min
- Time (min) to increase A405 by: 0.8 [1]: 14.5 min
- Time (min) to increase A405 by: 1.6 [1]: 15.8 min
- Time (min) to increase A405 by: 3.2 [1]: 17.3 min
- Time (min) to increase A405 by: 0.025 [2]: 11.0 min
- Time (min) to increase A405 by: 0.05 [2]: 12.5 min
- Time (min) to increase A405 by: 0.1 [2]: 13.8 min
- Time (min) to increase A405 by: 0.2 [2]: 15.2 min
- Time (min) to increase A405 by: 0.4 [2]: 16.5 min
- Time (min) to increase A405 by: 0.8 [2]: 18.0 min
- Time (min) to increase A405 by: 1.6 [2]: 19.5 min
- Time (min) to increase A405 by: 3.2 [2]: 21.3 min
- Time (min) to increase A405 by: 0.025 [3]: 8.7 min
- Time (min) to increase A405 by: 0.05 [3]: 9.8 min
- Time (min) to increase A405 by: 0.1 [3]: 11.0 min
- Time (min) to increase A405 by: 0.2 [3]: 12.2 min
- Time (min) to increase A405 by: 0.4 [3]: 13.3 min
- Time (min) to increase A405 by: 0.8 [3]: 14.7 min
- Time (min) to increase A405 by: 1.6 [3]: 16.0 min
- Time (min) to increase A405 by: 3.2 [3]: 17.3 min
